The values below come from the RNAGym collection of RNA variant scans (doi:10.1073/pnas.2313332121).

Sequences and labels used below:
B1: TPR t1 (parent)
chain: GACCAAUCUGCCCUCAGAGCUCGAGAACAUCUUCGGAUGCAGAGGAGGCAGGCUUCGGUGGCGCGAUAGCGCCAACGUCCUCAACCUCCAAUGCAUCCCACCACAUGAUGAUGCCUGAAGAGCCUUGGUUUUUUG

The variants in the data set derive from B1. In words: polymerase ribozyme fitness, log enrichment relative to wild type (log ratio); higher = more active; in vitro selection for triplet polymerase activity. In a few lines:
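After PCR construction and transcription, each subunit's mutant library from a heterodimeric triplet polymerase ribozyme was annealed with a biotinylated primer, the partner subunit and triplets. Incubation was frozen, at −7 °C, and extended constructs were gel-excised, bound to streptavidin beads and amplified by RT-PCR, in one selection round done in triplicate. Fitness is the logarithm of a genotype's enrichment divided by that of the wild type, from inverse-variance-weighted replicate averages of Illumina-sequenced inputs and outputs. The base of the logarithm is 2, and genotypes needed ≥10 input reads and ≥1 read per output.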
In the case of C12A C115U, the “polymerase ribozyme fitness (log ratio)” value is -1.21.

In the case of C12G A18U G45U G63U C88A, the “polymerase ribozyme fitness (log ratio)” value is -5.09.

For the variant C12A A66C U78A, the “polymerase ribozyme fitness (log ratio)” value was -2.43. The value for C12A G19U G23U G47A G52C G69U G110C was -7.34. The figure for C11U G61U U96A is -1.65; for C12A A111U it is -2.77; for C12A A111C it is -0.641. The value for C12A C88G G128U U129A was -4.77; that for C12A G23A G77U A119G was -5.67. Take C12A G17U: the “polymerase ribozyme fitness (log ratio)” value is -3.81. The value for C12A G17A was -4.31; that for C12A C70A was -2.05.

Consider C11U G69U, for which the “polymerase ribozyme fitness (log ratio)” value came to 0.459. The value for C11U U96A G110U was -2.95; that for C12A A16U C56G C124A was -0.00308. The value for C11U G52A C56U C72G U109G was -5.83. The value for C12G A16C C64U was -2.46. As for C12A A41U A90C, the “polymerase ribozyme fitness (log ratio)” value was -1.95.

For the variant C12A U55G G57A U109A G117U U132C U134G, the “polymerase ribozyme fitness (log ratio)” value was -6.47. The value for C12A C15U G52U C62A C86U G117C was -5.92; that for C12A G47U was -2.48.

As to C12A G47A, the “polymerase ribozyme fitness (log ratio)” value was -1.98. The figure for C12A C88U is -0.873; for C12A G45U A100U it is -3.05; for C12A G19U C40G C89U C102A U112C C114A it is -2.47. The value for C12A G36A U54A G57C C97A was -4.92. The value for C12A A66G G69U G71U was -2.65; that for C12A G52U G57U C64U C72U A105U was -3.63. For the variant C11U U33G A121C, the “polymerase ribozyme fitness (log ratio)” value was -4.56. In the case of C11U G35A A37U C124A U132A, the “polymerase ribozyme fitness (log ratio)” value is -4.07. The figure for C12A A16G G36U is -4.37. The figure for C12A U54C C115U is -2.47.

As for C12A U92G G128A, the “polymerase ribozyme fitness (log ratio)” value is -5.4. The value for C11U U112G was -0.177. The value for C12A A16G U81C G120C was 0.152. For the variant C12G A46C, the “polymerase ribozyme fitness (log ratio)” value was -1.55. The value for C11U G44C C101A was -2.7; that for C12A C124A was 1.83; that for C12A C124G was 1.95. The figure for C12A C124U is 0.853. Turning to C12A U32A C34G C102U, the “polymerase ribozyme fitness (log ratio)” value is -6.82.

For C12A C22G G36U U116C G120U, the “polymerase ribozyme fitness (log ratio)” value is -3.27. The value for C12A G120A was 0.0228; that for C12A G120C was 0.84; that for C12G A26C G60U A121U C124A U131G was -3.72. The value for C12A A50U G61C U78C C85U C124U was -6.64; that for C12G A43U G45C C73A U78A U92G was -2.67; that for C12A A18U C56U A68C C79U C115U A118C U131C was -6.43. The figure for C11U U21C C82G is -0.576; for C12A A43C C53U it is -2.86. For the variant C12A G122U C124A, the “polymerase ribozyme fitness (log ratio)” value stood at 1.6. The figure for C12A C22A A46U C79U is -6.1; for C12A C53A A108G it is -2.7. In the case of C12A G19U C79G, the “polymerase ribozyme fitness (log ratio)” value was -5.7. The figure for C12A A26U G44C C102U C123G is -7.51; for C12A A26C C56U G69A C85A it is -7.09; for C12A U78C A84U it is -1.77. The figure for C12A C31U A83C is -5.06; for C12G A16U U55C U78C A108G C123U it is -3.68.

Take C12A C53G: the “polymerase ribozyme fitness (log ratio)” value is -1.23. The figure for C12A C13U G39U is -0.844. The value for C12A G77U G110C U130C was -3.57. With C12G A24G A41U G57C G110A, the “polymerase ribozyme fitness (log ratio)” value is -5.76. The value for C12A G63C was -1.33; that for C12A G63A was -1.5; that for C12A G63U was -2.42. Regarding C12A C28G G44A, the “polymerase ribozyme fitness (log ratio)” value is -4.91. Consider C12A G42A C70U U96A G135C, for which the “polymerase ribozyme fitness (log ratio)” value is -4.85.

As for C12G A18G G44C G71C A84U, the “polymerase ribozyme fitness (log ratio)” value is -6.08. The figure for C11U U132A is -0.17; for C12A A75G C114A it is -3.82; for C11U G58A U126G it is -2.59. The value for C11U G60A U78C A95U U112A U116G was -3.18; that for C12G A37G was 0.106; that for C11U U106A was -0.58.

C11U U87A: the “polymerase ribozyme fitness (log ratio)” value was 0.703. C12G A37U G61C A75G: the “polymerase ribozyme fitness (log ratio)” value was -1.16.

With C12A G48C C72U G117U, the “polymerase ribozyme fitness (log ratio)” value was -5.59. The value for C12A G60A C88A C101A C102A was -4.87; that for C11U U32C C123G was 1.18. The figure for C12A U14G C72U U81C G93C A119U G120C is -0.415.

In the case of C12A A43C G61U C123G, the “polymerase ribozyme fitness (log ratio)” value was -0.577. The figure for C12A C15U C73A C79U C86A C115U is -3.16; for C12A U78A A119U it is -0.914.
